From US20120316071A1 (published 2012)

Assays:
[1] = molecular target: T1, Recombinant Human DLL4 (R&D Systems Cat#1506-D4/CF) (human, UniProt Q9NR61 27-529); assay: ECL Multispot (MSD), antigen spotted; Fab 5 (µM); blank 102; first of duplicates
T1 construct: Bought recombinant protein; also called delta-like protein 4; rHuman DLL4

[2] = molecular target: T2, rHuman ErbB2/Fc Chimera, CF (R&D Systems Cat#1129-ER) (human, UniProt P04626 23-652); assay: as above
T2 construct: Bought recombinant protein; Fc part of the bought chimera not given

[3] = molecular target: T3, rHuman EGF R/Fc Chimera, CF (R&D Systems Cat#344-ER) (human, UniProt P00533 25-645); assay: as above
T3 construct: Bought recombinant protein; Fc part of the bought chimera not given

[4] = molecular target: T4, rHuman HGF R/c-MET/Fc Chimera, CF (R&D Systems Cat#358-MT/CF) (human, UniProt P08581 25-932); assay: as above
T4 construct: Bought recombinant protein; also called HGF R/Fc; Fc part of the bought chimera not given
T4 sequence (P08581 25-932, change not shown): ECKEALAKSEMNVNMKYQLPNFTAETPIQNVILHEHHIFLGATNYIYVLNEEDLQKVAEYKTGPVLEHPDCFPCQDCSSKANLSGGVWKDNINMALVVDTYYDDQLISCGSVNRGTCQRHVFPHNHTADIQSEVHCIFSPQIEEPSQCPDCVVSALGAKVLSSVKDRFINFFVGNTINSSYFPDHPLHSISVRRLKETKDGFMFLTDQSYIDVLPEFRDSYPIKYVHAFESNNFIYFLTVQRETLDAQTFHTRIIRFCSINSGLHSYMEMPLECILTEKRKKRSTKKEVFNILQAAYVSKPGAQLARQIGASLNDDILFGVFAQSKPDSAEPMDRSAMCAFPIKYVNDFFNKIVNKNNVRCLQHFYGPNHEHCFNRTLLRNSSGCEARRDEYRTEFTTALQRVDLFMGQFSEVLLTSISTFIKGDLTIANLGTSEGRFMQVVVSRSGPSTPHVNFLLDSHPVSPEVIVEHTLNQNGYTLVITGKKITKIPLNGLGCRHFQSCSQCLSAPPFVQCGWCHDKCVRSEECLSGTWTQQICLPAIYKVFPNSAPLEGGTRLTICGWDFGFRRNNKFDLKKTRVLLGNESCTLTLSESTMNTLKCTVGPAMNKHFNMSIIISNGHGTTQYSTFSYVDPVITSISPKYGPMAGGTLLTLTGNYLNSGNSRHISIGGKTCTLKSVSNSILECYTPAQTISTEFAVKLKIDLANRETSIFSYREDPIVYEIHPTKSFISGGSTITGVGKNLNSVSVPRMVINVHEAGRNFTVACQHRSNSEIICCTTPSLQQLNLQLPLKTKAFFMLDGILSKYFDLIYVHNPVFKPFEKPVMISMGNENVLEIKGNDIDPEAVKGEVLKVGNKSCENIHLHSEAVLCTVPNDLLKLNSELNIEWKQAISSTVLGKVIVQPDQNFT

[5] = molecular target: T5, rHuman IGF-1 sR, CF (R&D Systems Cat#391-GR) (human, UniProt P08069 31-932); assay: as above
T5 construct: Bought recombinant soluble receptor; also called insulin-like growth factor-1 soluble receptor

[6] = molecular target: T6, rHuman P-Cadherin/Fc Chimera, CF (R&D Systems Cat#861-PC) (human, UniProt P22223 108-654); assay: as above
T6 construct: Bought recombinant protein; Fc part of the bought chimera not given

[7] = molecular target: T1, Recombinant Human DLL4 (R&D Systems …); assay: ECL Multispot (MSD), antigen spotted; Fab 50 (µM); blank 332; first of duplicates
[8] = molecular target: T2, rHuman ErbB2/Fc Chimera, CF (R&D …); assay: as above
[9] = molecular target: T3, rHuman EGF R/Fc Chimera, CF (R&D …); assay: as above
[10] = molecular target: T4, rHuman HGF R/c-MET/Fc Chimera, CF (R&D …); assay: as above
[11] = molecular target: T5, rHuman IGF-1 sR, CF (R&D Systems …); assay: as above
[12] = molecular target: T6, rHuman P-Cadherin/Fc Chimera, CF (R&D …); assay: as above
[13] = molecular target: T1, Recombinant Human DLL4 (R&D Systems …); assay: ECL Multispot (MSD), antigen spotted; Fab 0.50 (µM); blank 95; first of duplicates
[14] = molecular target: T2, rHuman ErbB2/Fc Chimera, CF (R&D …); assay: as above
[15] = molecular target: T3, rHuman EGF R/Fc Chimera, CF (R&D …); assay: as above
[16] = molecular target: T4, rHuman HGF R/c-MET/Fc Chimera, CF (R&D …); assay: as above
[17] = molecular target: T5, rHuman IGF-1 sR, CF (R&D Systems …); assay: as above
[18] = molecular target: T6, rHuman P-Cadherin/Fc Chimera, CF (R&D …); assay: as above
[19] = molecular target: T1, Recombinant Human DLL4 (R&D Systems …); assay: ECL Multispot (MSD), antigen spotted; Fab 500 (µM); blank 570; first of duplicates
[20] = molecular target: T2, rHuman ErbB2/Fc Chimera, CF (R&D …); assay: as above
[21] = molecular target: T3, rHuman EGF R/Fc Chimera, CF (R&D …); assay: as above
[22] = molecular target: T4, rHuman HGF R/c-MET/Fc Chimera, CF (R&D …); assay: as above
[23] = molecular target: T5, rHuman IGF-1 sR, CF (R&D Systems …); assay: as above
[24] = molecular target: T6, rHuman P-Cadherin/Fc Chimera, CF (R&D …); assay: as above

B1: Fab VH1-46_IGHD6-6*01_IGHJ1*01 S102A/S103P/S104F/H111F (APFF) & L6_IGKJ1*01 (Fab, V domains shown)
VH: QVQLVQSGAEVKKPGASVKVSCKASGYTFTSYYMHWVRQAPGQGLEWMGIINPSGGSTSYAQKFQGRVTMTRDTSTSTVYMELSSLRSEDTAVYYCAREEYAPFSAEYFQFWGQGTLVTVSS
VL: not shown
notes: Tested as a Fab made in E. coli: VH cloned in Plasmid A (CH1 constant region, His6 and Flag tags), VL in Plasmid C (kappa constant region); also called H:APFF & L:wt
With B1 the ECL signal [1] was 76300, the ECL signal [2] was 225 and the ECL signal [3] was 229. For the same binder, the ECL signal [4] was 208, the ECL signal [5] was 232 and the ECL signal [6] was 290. It also gave an ECL signal [7] of 79400, an ECL signal [8] of 394 and an ECL signal [9] of 452. For the same binder, the ECL signal [10] was 368, the ECL signal [11] was 283 and the ECL signal [12] was 349. The ECL signal [13] was 8320, the ECL signal [14] was 130 and the ECL signal [15] was 137. The ECL signal [16] was 104, the ECL signal [17] was 94 and the ECL signal [18] was 106. It also gave an ECL signal [19] of 26900, an ECL signal [20] of 908 and an ECL signal [21] of 2410. For the same binder, the ECL signal [22] was 945, the ECL signal [23] was 722 and the ECL signal [24] was 1010.
